The results in this text go back to US20250277048A1 (Regeneron, published 2025).

Common to all, as to assay: cell-based or functional assay
Assay [1] concerns the target T1, human CD40 (hCD40) expressed on cells (human, UniProt P25942 21-277).
Assay [2] concerns the target T1, human CD40 (hCD40) expressed on cells. The source holds these as a separate data set.
Assay [3] has the same target. This is another data set of the same source.
Assay [4] has the same target. The source holds these as a separate data set.
For assay [5] the target is unchanged. This is another data set of the same source.
Assay [6] shares this target. This is another data set of the same source.

T1 sequence (P25942 21-277): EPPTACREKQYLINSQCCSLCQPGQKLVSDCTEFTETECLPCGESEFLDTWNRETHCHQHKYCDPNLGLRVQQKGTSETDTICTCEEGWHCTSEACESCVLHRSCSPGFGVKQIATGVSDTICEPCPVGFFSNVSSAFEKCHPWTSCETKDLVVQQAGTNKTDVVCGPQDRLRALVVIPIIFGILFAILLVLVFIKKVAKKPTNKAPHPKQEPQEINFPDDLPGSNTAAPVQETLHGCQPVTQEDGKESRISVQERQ

B1: REGN11209 (comparator anti-CD40 antibody) (antibody, human IgG1, kappa, N297A, V domains shown)
VH: QVQLVESGGGVVQPGRSLRLSCAASGFTFSSYGMHWVRQAPGKGLEWVAVISYEESNRYHADSVKGRFTISRDNSKITLYLQMNSLRTEDTAVYYCARDGGIAAPGPDYWGQGTLVTVSS
VL: DIVMTQSPLSLTVTPGEPASISCRSSQSLLYSNGYNYLDWYLQKPGQSPQVLISLGSNRASGVPDRFSGSGSGTDFTLKISRVEAEDVGVYYCMQARQTPFTFGPGTKVDIRR
As for B1, in assay [1], the “% max blockade relative to no mAb, TNFa, donor 1” value was 53.9%; the “% max blockade relative to no mAb, TNFa, donor 2” value was 71.4%; the “% max blockade relative to no mAb, TNFa, donor 3” value turned out to be 73.9%. In assay [2], the “% max blockade relative to no mAb, IL-10, assay #2 donor 1” value came out at 88.1% and the “% max blockade relative to no mAb, IL-10, assay #2 donor 2” value was found to be 90.5%. In assay [3], the “% max blockade relative to no mAb, TNFa, assay #2 donor 1” value turned out to be 62% and the “% max blockade relative to no mAb, TNFa, assay #2 donor 2” value worked out at 50.6%. In assay [4], the “% max blockade relative to no mAb, IL-10, donor 1” value was 84.1%; the “% max blockade relative to no mAb, IL-10, donor 2” value was 91.7%; the “% max blockade relative to no mAb, IL-10, donor 3” value is 91.4%. Besides, in assay [5], the “% max blockade relative to no mAb, IL-6, assay #2 donor 1” value amounted to 88.6% and the “% max blockade relative to no mAb, IL-6, assay #2 donor 2” value was determined as 88.3%. In assay [6], the “% max blockade relative to no mAb, IL-6, donor 1” value was 84.2%; the “% max blockade relative to no mAb, IL-6, donor 2” value turned out to be 91.3%; the “% max blockade relative to no mAb, IL-6, donor 3” value came to 91.3%.
